Residue numbers refer to the chain shown, from its start. Names and notes keep the numbering of the source.
T1: human CD73 expressed at the cell surface (human, UniProt P21589 27-549)
T1 construct: GPI-anchored dimer on cells; also called huCD73; cellular CD73
T1 sequence: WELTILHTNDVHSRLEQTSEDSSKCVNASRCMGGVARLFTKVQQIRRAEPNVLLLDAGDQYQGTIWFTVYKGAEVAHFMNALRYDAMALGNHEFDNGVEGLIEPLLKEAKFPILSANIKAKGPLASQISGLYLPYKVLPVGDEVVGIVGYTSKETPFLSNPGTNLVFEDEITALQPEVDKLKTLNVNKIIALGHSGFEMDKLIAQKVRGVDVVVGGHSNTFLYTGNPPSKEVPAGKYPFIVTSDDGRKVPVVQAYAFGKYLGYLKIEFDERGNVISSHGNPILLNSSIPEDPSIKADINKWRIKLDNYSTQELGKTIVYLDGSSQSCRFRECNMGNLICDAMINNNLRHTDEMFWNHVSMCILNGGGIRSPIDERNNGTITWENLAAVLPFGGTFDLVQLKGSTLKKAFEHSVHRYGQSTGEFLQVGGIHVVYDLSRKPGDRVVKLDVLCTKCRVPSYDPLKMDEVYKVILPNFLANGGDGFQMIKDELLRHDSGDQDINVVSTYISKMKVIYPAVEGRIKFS

T2: mouse CD73 expressed on a recombinant host cell line (mouse, UniProt Q61503 29-551)
T2 construct: whole, on cells; also called moCD73
T2 sequence (looked up): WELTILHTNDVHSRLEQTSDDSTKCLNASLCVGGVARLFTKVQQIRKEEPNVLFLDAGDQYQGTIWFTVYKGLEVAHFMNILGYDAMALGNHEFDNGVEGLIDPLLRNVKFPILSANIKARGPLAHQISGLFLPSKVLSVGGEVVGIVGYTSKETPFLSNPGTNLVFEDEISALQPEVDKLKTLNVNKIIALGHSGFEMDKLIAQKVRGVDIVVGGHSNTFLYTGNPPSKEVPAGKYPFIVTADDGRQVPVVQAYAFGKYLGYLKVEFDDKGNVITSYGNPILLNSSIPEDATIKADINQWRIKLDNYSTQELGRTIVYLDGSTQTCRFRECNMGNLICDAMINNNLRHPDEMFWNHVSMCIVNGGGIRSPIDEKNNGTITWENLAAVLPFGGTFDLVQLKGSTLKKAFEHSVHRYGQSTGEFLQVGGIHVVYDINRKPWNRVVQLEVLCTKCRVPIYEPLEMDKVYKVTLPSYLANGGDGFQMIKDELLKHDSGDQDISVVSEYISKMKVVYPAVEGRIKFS

T3: recombinant human CD73-His extracellular domain protein (soluble dimer) (human, UniProt P21589 27-547)
T3 construct: Purified as a dimer; also called huCD73; soluble recombinant human CD73
T3 sequence: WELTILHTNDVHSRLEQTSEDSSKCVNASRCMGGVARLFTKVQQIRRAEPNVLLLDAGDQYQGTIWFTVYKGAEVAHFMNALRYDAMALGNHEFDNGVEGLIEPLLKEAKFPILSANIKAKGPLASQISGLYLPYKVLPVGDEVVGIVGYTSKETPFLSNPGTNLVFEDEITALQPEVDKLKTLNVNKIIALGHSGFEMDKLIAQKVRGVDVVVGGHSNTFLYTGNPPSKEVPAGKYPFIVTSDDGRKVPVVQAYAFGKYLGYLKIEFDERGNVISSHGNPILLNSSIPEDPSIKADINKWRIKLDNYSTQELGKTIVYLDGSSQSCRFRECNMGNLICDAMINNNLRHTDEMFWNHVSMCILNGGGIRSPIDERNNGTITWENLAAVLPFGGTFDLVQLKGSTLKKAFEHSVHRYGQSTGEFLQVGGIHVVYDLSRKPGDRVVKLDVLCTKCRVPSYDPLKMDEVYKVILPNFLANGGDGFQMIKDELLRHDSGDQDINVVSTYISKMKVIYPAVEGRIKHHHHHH

B1: antibody 11E1 (antibody, human IgG1, V domains shown)
VH: EIQLQQSGPELVKPGASVKVSCKASGYAFTSYNMYWVKQSHGKSLEWIGYIDPYNGGTSYNQKFKGKATLTVDKSSSTAYMHLNSLTSEDSAVYYCARGYGNYKAWFAYWGQGTLVTVSA
VL: DAVMTQTPKFLLVSAGDRVTITCKASQSVTNDVAWYQQKPGQSPKLLIYYASNRYTGVPDRFTGSGYGTDFTFTISTVQAEDLAVYFCQQDYSSLTFGAGTKLELK
notes: Produced as chimeric human IgG1 with heavy chain N297Q (Kabat EU numbering); also called 1E11
B2: antibody 3C12 (antibody, human IgG1, V domains shown)
VH: B1 VH with E1Q, T30A, Y35N, E46D, T58S, Q62L, K63T, S77T
VL: DVVMTQTPKFLLVSAGDRVTITCKASQSVSNDVAWYQQKPGQSPKLLIYYASTRYTGVPDRFTGSGYGTDFTFTISTVQAEDLAVYFCQQDYSSLTFGAGTKLELKR
notes: Produced as chimeric human IgG1 with heavy chain N297Q (Kabat EU numbering); RTVAAP)
B3: antibody 6E1 (antibody, human IgG1, V domains shown)
VH: B1 VH with I2F, S44R, T58S, S85N, G101N
VL: B1 VL with D1S, A2I, V78M
notes: Produced as chimeric human IgG1 with heavy chain N297Q (Kabat EU numbering)

Legend:
[1] = biological target: T1, human CD73 expressed at the cell surface; test: flow cytometry titration on MDA-MB-231 cells (endogenous CD73), median of fluorescence
Experimental: MDA-MB-231 cells are available from ATCC (reference HTB-26). 10⁵ cells resuspended in PBS/0.2% BSA/0.02% NaN3 (named “staining buffer”) are distributed into round bottom 96W-microplates. Dose-range of anti-CD73 antibodies was added to the plates and cells are incubated for 45 min at 4° C. Cells were washed three times in staining buffer by spinning plates at 400 g for 3 min at 4° C. PE-coupled goat anti-mouse or goat anti-human IgG Fc fragment secondary antibodies (Beckman Coulter) diluted in staining buffer were added to the cells and plates are incubated for 30 additional minutes at 4° C. Cells were washed three times as described above and analyzed on an Accury C6 flow cytometer equipped with an HTFC plate reader.
Median of fluorescence vs. antibodies concentration was plotted on graphs and EC50 is calculated using Graph Pad Prism program.

[2] = biological target: T2, mouse CD73 expressed on a recombinant …; test: flow cytometry titration on a mouse-CD73-expressing recombinant host cell line, median of fluorescence
[3] = biological target: T4, cynomolgus CD73 expressed on a recombinant host cell line (cynomolgus); test: flow cytometry titration on a cynomolgus-CD73-expressing recombinant host cell line, median of fluorescence
T4 construct: whole, on cells; also called cynoCD73

[4] = biological target: T3, recombinant human CD73-His …; test: SPR (Biacore T100), antibody captured on Protein-A, soluble dimeric CD73 injected 1.23-300 nM, 1:1 model, bivalent affinity
Experimental: SPR measurements were performed on a Biacore T100 apparatus (Biacore GE Healthcare) at 25° C. In all Biacore experiments HBS-EP+(Biacore GE Healthcare) and NaOH 10 mM served as running buffer and regeneration buffer respectively. Sensorgrams were analyzed with Biacore T100 Evaluation software. Protein-A was purchase from (GE Healthcare). Human soluble dimeric CD73 proteins were cloned, produced and purified at Innate Pharma.
Protein-A proteins were immobilized covalently to carboxyl groups in the dextran layer on a Sensor Chip CMS. The chip surface was activated with EDC/NHS (N-ethyl-N′-(3-dimethylaminopropyl) carbodiimide hydrochloride and N-hydroxysuccinimide (Biacore GE Healthcare). Protein-A was diluted to 10 μg/ml in coupling buffer (10 mM acetate, pH 5.6) and injected until the appropriate immobilization level was reached (i.e. 2000 RU). Deactivation of the remaining activated groups was performed using 100 mM ethanolamine pH 8 (Biacore GE Healthcare).
Affinity study was carried out according to a standard Capture-Kinetic protocol recommended by the manufacturer (Biacore GE Healthcare kinetic wizard). Serial dilutions of human recombinant soluble dimeric CD73 proteins, ranging from 1.23 to 300 nM were sequentially injected over the captured anti-CD73 antibodies and allowed to dissociate for 10 min before regeneration. The entire sensorgram sets were fitted using the 1:1 kinetic binding model. Bivalent affinities and kinetic association and dissociation rate constants are shown below in Table 2 below.

Binder	EC50 (read off the curve) [1] [µg/mL]	binding result [2]	EC50 (read off the curve) [3] [µg/mL]	Kd [4] [pM]
B1	~0.1	no binding (tested: about 30-40 µg/ml)	~0.4	822
B2	~0.07	no binding (tested: about 30 µg/ml)	~0.4	682
B3	~0.1	no binding (tested: about 30-40 µg/ml)	~0.4	819

— patent publication US20180030144A1 (INNATE PHARMA, published 2018)
